Data taken from patent US8119387B2, “Polypeptides of strain Bacillus sp. P203” (Novozymes A/S, priority 2005, dated 2012).

What was measured:
[1] = target: recombinant carbonic anhydrase (SEQ ID NO: 4) from Bacillus sp. P203 (Alkalicoccobacillus plakortidis, UniProt A0ABT0XM38); conditions: read-out: IC50, inhibition of recombinant carbonic anhydrase; purified recombinant enzyme from Bacillus sp. P203
Procedure: A standard assay contained 900 microliter of PNPA, 10 microliter of 300 mM Tris pH 7.5 and 90 microliter of carbonic anhydrase protein solution. After a pre-incubation for 5 min, the enzyme was added to the PNPA buffer mixture and the increase in absorbance (due to the hydrolysis of the substrate and release of p-nitrophenol) at 348 nm was monitored photometrically in a quartz cuvette over a period of 10 min. As a positive control for both activity assays, a solution of bovine carbonic anhydrase (Calbiochem, 1 mg per mL) may be used.
Enzyme was pre-incubated with 1 mM of the substances for 1 h on ice in a total volume of 50 micro liter before testing activity with 10 micro liter of the mixture with the Wilbur and Anderson, 1948 method. The control with no additives (water) was set to 100% activity. […] Instead activity with 25 micro molar concentration of the chemicals are given.

[2] = Temperature and storage stability of purified recombinant carbonic anhydrase (residual activity); type: physicochemical
Procedure: The carbonic anhydrase activity was determined according to Wilbur. […] 147-154. […] (see FIG. 2).

Sequence of recombinant carbonic anhydrase (SEQ ID NO: 4) from Bacillus sp. P203 (A0ABT0XM38 entry or part of it): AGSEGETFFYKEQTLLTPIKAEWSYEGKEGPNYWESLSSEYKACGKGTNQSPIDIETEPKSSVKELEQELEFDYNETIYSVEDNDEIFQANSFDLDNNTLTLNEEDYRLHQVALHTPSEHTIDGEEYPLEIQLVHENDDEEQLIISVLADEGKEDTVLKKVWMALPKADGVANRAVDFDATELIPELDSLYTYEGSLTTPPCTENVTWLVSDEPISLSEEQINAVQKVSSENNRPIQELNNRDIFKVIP

[N-]=[N+]=[N-] [azide]
IC50 [1]: 500 µM

B1: recombinant carbonic anhydrase: purified recombinant carbonic anhydrase (SEQ ID NO: 4) from strain Bacillus sp. P203 (protein)
chain: MRKTNVLLKSTMITTLLLSSTLLVTTPIYAHTETQQLSYKTLNDLLTEDGHSGWSYSGLTGPEYWGELNEDYKACSKGEEQSPIALQNEDIDNEKWSFDLDYEETEFSIENNGHTIQANVEGSSSNTLLLNDTEYNLVQFHFHSPSEHTLDDEYFEMEVHLVHQDEHANLAVLGVLIEEGEQNETLTDMWELMPGQQGEAAERITLNPSELVPSDLSTFQYDGSLTTPPCSEDVKWSVSDSTISLSPEQLEAFQDLYPNNYRPIQDLGNREVGFHY
modifications: Bacillus sp. P 203
notes: P203
activity remaining after storage ([2]; 4° C. in buffer F for a week): 97+/−4 % of original activity | effect of storage with DTT on stability ([2]; buffer F supplemented with 1 mM dithiothreitol (DTT)): stabilize the enzyme | activity remaining after storage ([2]; room temperature (20° C.), buffer F): 95+/−4 % of original activity | stability at elevated temperature ([2]; temperatures over 37° C., tested 4-60° C. for 1 and 17 h (FIG. 2)): rapidly decreased | activity remaining after storage ([2]; −20° C. for one week in buffer F): 99+/−4 % of original activity
